Measurements published in patent publication US7666414B2.

Biological target: prostate specific membrane antigen (PSMA) on LNCaP cells (human) (UniProt Q04609)

tumor uptake of the 131I-labelled antibody in nude mice bearing LNCaP tumors, one day post injection (% injected dose/gram) (% injected dose/gram): 4.41
Substance: irrelevant IgG antibody
